For data set [1], the target named is uPAR (Homo sapiens, UniProt Q03405). Nature of the data set: uPAR-targeting efficiency of ATF fragment. The conditions noted are these: in comparison with the full length ATF (135 aa).
Data set [2] is described as follows: Solubility of recombinant ATF fragments. The class given is physicochemical. The conditions noted are these: compared to ATF 135 aa. The text has this:
The amino terminal fragment (ATF, 135 aa) of uPA was used as a target ligand to develop uPAR-targeted theranostic IONPs. The yield and purity of recombinant ATF from bacterial cultures have been less than optimal due to the formation of undesirable aggregates. By removing of the hydrophobic amino acids that promote the formation of aggregates, uPAR targeting ligands (39 and 68 aa) with receptor-binding peptide regions were engineered as improvements.
In comparison with the full length ATF (135 aa), this short uPAR targeted ligand is an improved candidate to engineer the fusion targeting ligand ATF68-MMP14 with dual uPAR targeting and MMP14 protease activity.

The record followed here is US12201692B2, “Targeted protease compositions and uses related thereto” (Emory University, priority 2013, dated 2025).

“Also recorded” adds a separate entry of the source.

Sequence of uPAR (Q03405 23-305): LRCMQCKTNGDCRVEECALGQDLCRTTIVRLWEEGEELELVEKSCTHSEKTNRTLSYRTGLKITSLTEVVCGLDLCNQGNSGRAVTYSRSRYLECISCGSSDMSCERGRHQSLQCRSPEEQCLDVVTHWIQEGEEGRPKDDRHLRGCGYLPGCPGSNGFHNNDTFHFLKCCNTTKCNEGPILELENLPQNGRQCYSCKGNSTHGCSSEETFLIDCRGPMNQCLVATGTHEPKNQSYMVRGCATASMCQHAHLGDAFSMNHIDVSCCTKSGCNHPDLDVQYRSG

B1: ATF68: uPA-ATF with only the growth factor domain, 68 aa uPAR targeting ligand (SEQ ID NO:2) (protein)
chain: SNELHQVPSNCDCLNGGTCVSNKYFSNIHWCNCPKKFGGQHCEIDKSKTCYEGNGHFYRGKASTDTMG
Regarding B1, the uPAR-targeting efficiency entry in data set [1] is “higher uPAR-targeting efficiency”. Further, the solubility result in data set [2] is “better solubility; also recorded: improved physiological solubility”.
